In patent EP0574512B1:

Legend:
[1] = target: HIV-1 envelope gp120/gp41 complex (HIV-1); experiment: cell-based or functional assay
[2] = target: MHC class II antigen on the Raji B cell line; experiment: cell-based or functional assay

Question: How did the mean effector to target ratio for 50% release (51Cr release cytolysis by CTL) (effector to target ratio) [1] turn out when CD4:ζ chimeric receptor was run?
Answer: The mean effector to target ratio for 50% release (51Cr release cytolysis by CTL) (effector to target ratio) was 1.9.

Question: And the cytolysis (51Cr release) [2]?
Answer: The cytolysis (51Cr release) was 5 % cytolysis.
